These are literature values, as cited in PMC4454452.

The target in data set [1] is Histone H3 peptide (H3K9me3) (Homo sapiens) (UniProt P68431).
Data set [2] deals with Histone H3 peptide (H3K9me0) (Homo sapiens) (UniProt P68431).

Chain of CHD4 PHD2 (Q14839 449-496): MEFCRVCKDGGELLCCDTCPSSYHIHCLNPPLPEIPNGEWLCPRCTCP

What is called Kd is the equilibrium constant for the complex coming apart. With CHD4 PHD2 (from UniProt Q14839), the Kd in data set [1] was 0.9 µM; in data set [2] it was 19 µM.
